The text below walks through data of patent US20060073152A1 (Genentech, published 2006).

No end group written: not given here.

B1: HBC-H18 (peptide)
peptide: RDTVCYFPGICWMAS
modifications: not fully specified (bridges); cysteine pairing not given here; also: phage-displayed
notes: on phage
B2: HC-H2 (peptide)
peptide: KLCYFPGICWS
modifications: not fully specified (bridges); cysteine pairing not given here; also: phage-displayed
notes: on phage
B3: HBC-H15 (peptide)
peptide: KTEICYFPGICWMSG
modifications: not fully specified (bridges); cysteine pairing not given here; also: phage-displayed
notes: on phage
B4: HB-H16 (peptide)
peptide: RMPASLPCYWETICYESSEQ
modifications: not fully specified (bridges); cysteine pairing not given here; also: phage-displayed
notes: on phage
B5: HBC-H17 (peptide)
peptide: HAEICYFPGICWTER
modifications: not fully specified (bridges); cysteine pairing not given here; also: phage-displayed
notes: on phage
B6: HBC-H4 (peptide)
peptide: GGEICYFPGICRVLP
modifications: not fully specified (bridges); cysteine pairing not given here; also: phage-displayed
notes: on phage
B7: HB-H13 (peptide)
peptide: ELCYFPGICWT
modifications: not fully specified (bridges); cysteine pairing not given here; also: phage-displayed
notes: on phage
B8: HC-H11 (peptide)
peptide: EVCYFPGICWF
modifications: not fully specified (bridges); cysteine pairing not given here; also: phage-displayed
notes: on phage
B9: HC-H16 (peptide)
peptide: EVCYFPGICWE
modifications: not fully specified (bridges); cysteine pairing not given here; also: phage-displayed
notes: on phage
B10: HB-H18 (peptide)
peptide: RTAESLVCYWPGICFAQSER
modifications: not fully specified (bridges); cysteine pairing not given here; also: phage-displayed
notes: on phage
B11: HBC-H3 (peptide)
peptide: GTEVCYFPGICWGGG
modifications: not fully specified (bridges); cysteine pairing not given here; also: phage-displayed
notes: on phage

T2 sequence (P02770 25-608 limits assumed): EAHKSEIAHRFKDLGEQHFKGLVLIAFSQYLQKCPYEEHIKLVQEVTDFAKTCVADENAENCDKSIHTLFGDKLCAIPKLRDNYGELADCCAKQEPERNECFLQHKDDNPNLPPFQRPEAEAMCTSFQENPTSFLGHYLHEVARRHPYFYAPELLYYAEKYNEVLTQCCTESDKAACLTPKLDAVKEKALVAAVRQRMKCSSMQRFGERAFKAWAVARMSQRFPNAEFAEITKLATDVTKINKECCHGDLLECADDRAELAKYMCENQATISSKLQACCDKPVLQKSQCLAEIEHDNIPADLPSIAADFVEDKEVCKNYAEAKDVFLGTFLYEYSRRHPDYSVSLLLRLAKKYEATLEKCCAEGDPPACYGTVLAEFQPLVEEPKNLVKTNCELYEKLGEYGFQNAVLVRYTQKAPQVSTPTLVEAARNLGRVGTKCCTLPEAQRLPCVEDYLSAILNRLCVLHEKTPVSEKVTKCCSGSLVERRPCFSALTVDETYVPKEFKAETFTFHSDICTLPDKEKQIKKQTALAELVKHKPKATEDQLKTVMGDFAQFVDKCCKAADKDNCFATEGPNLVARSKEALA

The target of the first test is T1, human serum albumin (human, UniProt P02768 25-609).
T1 construct: also called Human SA; HuSA
In words: phage binding.
Take B1: the binding result is given as “binds”.
The same measure, in the same setting: under EVRSFCTDWPAHYSCTSLQG (on phage) [HA-H74] stands “binds”; under B2, “binds”.
The same measure, in the same setting: the entry for B3 is “binds”; for VQEVCYFPGICWMQE (on phage) [HBC-H10] it is “binds”; for VRDMCYFPGICWKSE (on phage) [HBC-H19] it is “binds”.
On the same count and under the same terms, under LAEMCYFPGICWMSA (on phage) [HBC-H7] stands “binds”.
In the case of DICYIPGICWM (on phage) [HC-H6], the binding result is given as “binds”.
Still for that read-out and setting: the entry for DMCYFPGICWL (on phage) [HC-H13] is “binds”; for SGAICYVPGICWTHA (on phage) [HB-H7] it is “binds”.
Still for that read-out and setting: the entry for DSEVCYFPGICWSGT (on phage) [HBC-H1] is “binds”; for GMCYFPGICWA (on phage) [HC-H4] it is “binds”; for B4 it is “binds”.
Still for that read-out and setting: the entry for SYAPCYFPGICWMGN (on phage) [HBC-H8] is “binds”; for TTEMCYFPGICWKTE (on phage) [HBC-H14] it is “binds”; for QTRSFCADWPRHESCKPLRG (on phage) [HA-H76] it is “binds”.
Turning to RAAESSVCYWPGICFDRTEQ (on phage) [HB-H2], the binding result was “binds”.
The same measure, in the same setting: the entry for ASEICYFPGICWMVE (on phage) [HBC-H12] is “binds”; for NDEICYFPGVCWKSG (on phage) [HBC-H11] it is “binds”.
Still for that read-out and setting: under REPASLVCYFEDICFVRAEA (on phage) [HB-H3] stands “binds”.
On to QTELCYFPGICWNES (on phage) [HBC-H13], for which the binding result is listed as “binds”.
The same measure, in the same setting: the entry for LVPERIVCYFESICYERSEL (on phage) [HB-H4] is “binds”.
Regarding EHDMCYFPGICWIAD (on phage) [HBC-H6], the binding result is reported as “binds”.
On the same count and under the same terms, under B5 stands “binds”; under KTCYFPGICWM (on phage) [HC-H10], “binds”.
The same measure, in the same setting: under GVRTFCQDWPAHNSCKLLRG (on phage) [HA-H73] stands “binds”.
As for DMCYFPGICFN (on phage) [HC-H18], the binding result is on record as “binds”.
As to B6, the binding result was “binds”.
ELCYFPGICWM (on phage) [HC-H20]: the binding result is on record as “binds”.
Still for that read-out and setting: under EICYFPGICWM (on phage) [HC-H17] stands “binds”; under EMCYFPGICWS (on phage) [HC-H7], “binds”; under B7, “binds”.
Still for that read-out and setting: under DVCYFPGICWM (on phage) [HC-H8] stands “binds”; under EICYFPGICWI (on phage) [HB-H12], “binds”; under EVCYFPGICWM (on phage) [HC-H19], “binds”.
In the case of ELCYFPGICWP (on phage) [HC-H15], the binding result is “binds”.
Still for that read-out and setting: the entry for B8 is “binds”; for B9 it is “binds”.
Turning to ALCYFPGICWM (on phage) [HC-H14], the binding result is “binds”.
Regarding EMCYFPGICWT (on phage) [HC-H9], the binding result is “binds”.
The same measure, in the same setting: under DLCYFPGICWM (on phage) [HC-H3] stands “binds”; under MEPSRSVCYAEGICFDRGEQ (on phage) [HB-H8], “binds”.
Same read-out and setting: the entry for SREVCYYPGICWNGA (on phage) [HBC-H2] is “binds”; for B10 it is “binds”.
As for ETCYFPGICWL (on phage) [HC-H12], the binding result was “binds”.
In the case of B11, the binding result was “binds”.
Same read-out and setting: under IVEMCYYPGICWISP (on phage) [HB-H10] stands “binds”.

The next test addresses T2, rat serum albumin (rat, UniProt P02770 25-608).
T2 construct: also called Rat SA; RSA
As to the kind of experiment: phage binding.
For KMGRVDFCLPKWGCLWGDEL (not fully specified (bridges); cysteine pairing not given here, on phage) [RB-R13], the binding result is “binds”.
The same measure, in the same setting: under QSQLEDFCLPKWGCLWGDGF (not fully specified (bridges); cysteine pairing not given here, on phage) [RB-R15] stands “binds”; under QRPIMDFCLPKWGCLWEDGF (on phage) [RB-R7], “binds”; under ERQMVDFCLPKWGCLWGDGF (on phage) [RB-R11], “binds”.
The same measure, in the same setting: under QRHMMDFCLPKWGCLWGDGY (not fully specified (bridges); cysteine pairing not given here, on phage) [RB-R4] stands “binds”; under QGYMVDFCLPRWGCLWGDAN (not fully specified (bridges); cysteine pairing not given here, on phage) [RB-R12], “binds”.
